What was measured:
Format in all cases: biochemical
Design in all cases: key: +: Detected; −: Not detected
[1] = Synthesis of N-caprinoylamino acid using purified acylamino acid synthetase, UPLC-MS detection; details: +ATP
Method: 2.0 mL of a reaction solution containing 50 mM Tris-HCl, 5 mM amino acid, 5 mM sodium caprate, 10 mM ATP, 10 mM MgCl2, 1 mM DTT, 50 μg of the purified enzyme, pH 8.0 was incubated at 25° C. for 24 hours. After completion of the reaction, 0.8 mL of a reaction stop solution (1% (v/v) phosphoric acid, 75% (v/v) methanol) was added, and the mixture was filtrated through a filter followed by being subjected to the UPLC-MS analysis to detect a signal of a molecular weight corresponding to an N-caprinoyl amino acid.
A UPLC-MS analysis condition is as follows.
(§1) Apparatus: ACQUITY UPLC (Waters)
• Column: ACQUITY UPLC BEH C18 1.7 2.1×100 mm Column (Waters) • Mobile phase A: 0.1% formic acid • Mobile phase B: acetonitrile Gradient
• Flow rate: 0.6 mL/min • Injection amount: 2 μL • Column temperature: 40° C. • Ionization method: ESI-negative
As a result of the UPLC-MS analysis, the signal of the molecular weight corresponding to the N-caprinoyl amino acid was confirmed in the reaction solution combining the enzyme and the amino acid shown in Table 3 below.

[2] = Synthesis of N-caprinoyl-amino acid derivative, N-caprinoyl-D-amino acid and N-caprinoyl-peptide using purified acylamino acid synthetase, UPLC-MS detection; details: +ATP
Method: 0.2 mL of a reaction solution containing 50 mM Tris-HCl, 5 mM amino acid derivative or D-amino acid or peptide, 5 mM sodium caprate, 10 mM ATP, 10 mM MgCl2, 1 mM DTT, 50 μg/mL of the purified enzyme, pH 8.0 was incubated at 25° C. for 24 hours. After completion of the reaction, 0.8 mL of the reaction stop solution (1% (v/v) phosphoric acid, 75% (v/v) methanol) was added, and the mixture was filtrated through the filter followed by being subjected to the UPLC-MS analysis to detect a signal of a molecular weight corresponding to an N-caprinoyl-amino acid derivative, an N-caprinoyl-amino acid or an N-caprinoyl-peptide. A condition for the UPLC-MS analysis is as described in Example 2.
As a result of the UPLC-MS analysis, the signal of the molecular weight corresponding to the N-caprinoyl-amino acid derivative, or N-caprinoyl-amino acid, or N-caprinoyl-peptide was confirmed in the reaction solution containing the enzyme in combination with the amino acid derivative or the D-amino acid or the peptide shown in Table 4 below.

[3] = Synthesis of N-acylamino acids from various fatty acids using purified acylamino acid synthetase, UPLC-MS detection
Method: 0.1 mL of a reaction solution containing 50 mM Tris-HCl, 5 mM amino acid, 5 mM sodium fatty acid (3 mM of sodium palmitate or sodium stearate), 10 mM ATP, 10 mM MgCl2, 1 mM DTT, 200 μg/mL of the purified enzyme, pH 8.0 was shaken at 25° C. for 24 hours. When sodium palmitate or sodium stearate was used, methanol at a final concentration of 10% (v/v) was contained in the reaction solution. As the amino acid, L-Asp was used in AtGH3-6, OsGH3-8, AtGH3-5, AtGH3-12, L-Ile was used in AtJAR1, L-Ala was used in AtGH3-10, SsGH3, L-Glu was used in AtGH3-17, Gly was used in CfHP, L-Lys was used in PsIAAL, and L-Cys was used in PaHP. After completion of the reaction, 0.4 mL of the reaction stop solution (1% (v/v) phosphoric acid, 75% (v/v) methanol) was added, and the mixture was filtrated through the filter followed by being subjected to the UPLC-MS analysis to detect a signal of a molecular weight corresponding to the N-acylamino acid.
The condition for the UPLC-MS analysis is as follows.
as §1
Column: ACQUITY UPLC BEH C18 1.7 μm 2.1×100 mm Column (Waters), mobile phase A: 0.1% formic acid; mobile phase B: acetonitrile
• Flow rate: 0.6 mL/minute • Injection amount: 2 μL • Column temperature: 40° C. • Ionization method: ESI-negative
As a result of the UPLC-MS analysis, the signal of the molecular weight corresponding to the appropriate N-acylamino acid was confirmed in the reaction solution containing the enzyme in combination with sodium fatty acid shown in Table 7 below.

B1: AtGH3-10: GH3-10 from Arabidopsis thaliana, His-tagged (protein, listed as Arabidopsis thaliana)
chain: METVEAGHDDVIGWFEHVSENACKVQSETLRRILELNSGVEYLRKWLGTVDVEKMDDYTLETLFTSLVPIVSHADLDPYIQRIADGETSPLLTQEPITVLSLSSGTTEGRQKYVPFTRHSAQTTLQIFRLSAAYRSRFYPIREGGRILEFIYAGKEFKTLGGLTVGTATTHYYASEEFKTKQETTKSFTCSPQEVISGGDFGQCTYCHLLLGLHYSSQVEFVASAFSYTIVQAFSFFEEIWREICADIKEGNLSSRITLPKMRKAVLALIRPNPSLASHIEEICLELETNLGWFGLISKLWPNAKFISSIMTGSMLPYLNKLRHYAGGLPLVSADYGSTESWIGVNVDPHLPPEDVSFAVIPTFSYFEFIPLYRRQNQSDICIDGDFVEDKPVPLSQVKLGQEYELVLTTFTGLYRYRLGDVVEVTSFHKGTPKLSFIYRRKLILTINIDKNTEKDLQRVVDKASQLLSRSTRAEVVDFTSHADVIARPGHYVIYWEIRGEADDKALEECCREMDTAFVDYGYVVSRRMNSIGPLELRVVERGTFGKVAERCVGKCGGLNQFKTPRCTTNSVMLDILNDSTIKRFRSSAYD
modifications: His-tag
notes: GH3-10 from Arabidopsis thaliana, His-tagged
[1]; substrates GABA and sodium caprate
  signal of molecular weight corresponding to N-caprinoyl amino acid: +
[1]; substrates Gly and sodium caprate
  signal of molecular weight corresponding to N-caprinoyl amino acid: +
[1]; substrates L-Ala and sodium caprate
  signal of molecular weight corresponding to N-caprinoyl amino acid: +
[1]; substrates L-Arg and sodium caprate
  signal of molecular weight corresponding to N-caprinoyl amino acid: +
[1]; substrates L-Asn and sodium caprate
  signal of molecular weight corresponding to N-caprinoyl amino acid: +
[1]; substrates L-Asp and sodium caprate
  signal of molecular weight corresponding to N-caprinoyl amino acid: +
[1]; substrates L-Cys and sodium caprate
  signal of molecular weight corresponding to N-caprinoyl amino acid: −
[1]; substrates L-Gln and sodium caprate
  signal of molecular weight corresponding to N-caprinoyl amino acid: +
[1]; substrates L-Glu and sodium caprate
  signal of molecular weight corresponding to N-caprinoyl amino acid: −
[1]; substrates L-His and sodium caprate
  signal of molecular weight corresponding to N-caprinoyl amino acid: +
[1]; substrates L-Ile and sodium caprate
  signal of molecular weight corresponding to N-caprinoyl amino acid: +
[1]; substrates L-Leu and sodium caprate
  signal of molecular weight corresponding to N-caprinoyl amino acid: +
[1]; substrates L-Lys and sodium caprate
  signal of molecular weight corresponding to N-caprinoyl amino acid: +
[1]; substrates L-Met and sodium caprate
  signal of molecular weight corresponding to N-caprinoyl amino acid: +
[1]; substrates L-Phe and sodium caprate
  signal of molecular weight corresponding to N-caprinoyl amino acid: +
[1]; substrates L-Pro and sodium caprate
  signal of molecular weight corresponding to N-caprinoyl amino acid: +
[1]; substrates L-Ser and sodium caprate
  signal of molecular weight corresponding to N-caprinoyl amino acid: +
[1]; substrates L-Thr and sodium caprate
  signal of molecular weight corresponding to N-caprinoyl amino acid: +
[1]; substrates L-Trp and sodium caprate
  signal of molecular weight corresponding to N-caprinoyl amino acid: +
[1]; substrates L-Tyr and sodium caprate
  signal of molecular weight corresponding to N-caprinoyl amino acid: +
[1]; substrates L-Val and sodium caprate
  signal of molecular weight corresponding to N-caprinoyl amino acid: +
[1]; substrates β-Ala and sodium caprate
  signal of molecular weight corresponding to N-caprinoyl amino acid: +
[2]; substrates Carnosine and sodium caprate
  signal of molecular weight corresponding to N-caprinoyl compound: −
[2]; substrates D-Ala and sodium caprate
  signal of molecular weight corresponding to N-caprinoyl compound: +
[2]; substrates D-Asp and sodium caprate
  signal of molecular weight corresponding to N-caprinoyl compound: +
[2]; substrates D-Cys and sodium caprate
  signal of molecular weight corresponding to N-caprinoyl compound: +
[2]; substrates D-Glu and sodium caprate
  signal of molecular weight corresponding to N-caprinoyl compound: +
[2]; substrates D-Ile and sodium caprate
  signal of molecular weight corresponding to N-caprinoyl compound: −
[2]; substrates D-Lys and sodium caprate
  signal of molecular weight corresponding to N-caprinoyl compound: −
[2]; substrates L-Asp-L-Phe and sodium caprate
  signal of molecular weight corresponding to N-caprinoyl compound: −
[2]; substrates L-Gly-L-Gly and sodium caprate
  signal of molecular weight corresponding to N-caprinoyl compound: +
[2]; substrates Sarcosine and sodium caprate
  signal of molecular weight corresponding to N-caprinoyl compound: −
[2]; substrates Taurine and sodium caprate
  signal of molecular weight corresponding to N-caprinoyl compound: +
[3]; substrates L-Ala and Capric acid
  signal of molecular weight corresponding to N-acylamino acid: +
[3]; substrates L-Ala and Caproic acid
  signal of molecular weight corresponding to N-acylamino acid: +
[3]; substrates L-Ala and Caprylic acid
  signal of molecular weight corresponding to N-acylamino acid: +
[3]; substrates L-Ala and Lauric acid
  signal of molecular weight corresponding to N-acylamino acid: +
[3]; substrates L-Ala and Linoleic acid
  signal of molecular weight corresponding to N-acylamino acid: −
[3]; substrates L-Ala and Palmitic acid
  signal of molecular weight corresponding to N-acylamino acid: −
[3]; substrates L-Ala and myristic acid
  signal of molecular weight corresponding to N-acylamino acid: +
[3]; substrates L-Lys and Capric acid
  signal of molecular weight corresponding to N-acylamino acid: +
[3]; substrates L-Lys and Caproic acid
  signal of molecular weight corresponding to N-acylamino acid: +
[3]; substrates L-Lys and Caprylic acid
  signal of molecular weight corresponding to N-acylamino acid: +
[3]; substrates L-Lys and Lauric acid
  signal of molecular weight corresponding to N-acylamino acid: +
[3]; substrates L-Lys and Linoleic acid
  signal of molecular weight corresponding to N-acylamino acid: −
[3]; substrates L-Lys and Palmitic acid
  signal of molecular weight corresponding to N-acylamino acid: +
[3]; substrates L-Lys and myristic acid
  signal of molecular weight corresponding to N-acylamino acid: +
